± gives the uncertainty stated by the source.
B1: Histone-lysine N-methyltransferase 2A, residues 1148 to 1194; numbered along this chain, Q03164 (parent)
chain: KGRRSRRCGQCPGCQVPEDCGVCTNCLDKPKFGGRNIKKQCCKMRKC

Variants of: B1
Assay: abundance fitness (aPCA) (normalised: wild type 0, dead -1); higher = more abundant; growth selection in yeast, the domain comes from the species named
Details: Homo sapiens

Abundance fitness, by site and new letter:
D19: L -0.878 ± 0.11 | C -0.977 ± 0.2 | I -1.24 ± 0.42 | E -0.962 ± 0.15 | T -0.865 ± 0.16 | W -0.861 ± 0.2 | K -0.898 ± 0.15 | H -0.677 ± 0.28 | F -1.02 ± 0.21 | Y -0.859 ± 0.21 | N -0.624 ± 0.18 | V -0.901 ± 0.11 | R -0.775 ± 0.12
V22: L -0.166 ± 0.081 | D -0.322 ± 0.14 | R -0.021 ± 0.083 | Y -0.053 ± 0.1 | F -0.009 ± 0.11 | Q 0.079 ± 0.15 | G -0.319 ± 0.09 | E -0.158 ± 0.14 | K -0.079 ± 0.14 | M -0.385 ± 0.11 | H -0.046 ± 0.13 | P -0.769 ± 0.12 | S 0.061 ± 0.079 | W -0.246 ± 0.12 | N -0.28 ± 0.12 | C -0.311 ± 0.11
G21: R -0.416 ± 0.09 | I -0.995 ± 0.24 | N -0.767 ± 0.27 | F -0.684 ± 0.2 | D -0.872 ± 0.15 | W -0.88 ± 0.15 | S -0.542 ± 0.096 | H -0.375 ± 0.19 | V -0.7 ± 0.1 | E -0.677 ± 0.16 | T -0.894 ± 0.16 | L -0.626 ± 0.098 | Y -0.769 ± 0.19 | Q -0.918 ± 0.17 | M -0.278 ± 0.13 | P -0.857 ± 0.14 | C -0.805 ± 0.16
E18: N -0.161 ± 0.17 | P -0.495 ± 0.14 | I -0.364 ± 0.14 | D -0.182 ± 0.15 | G -0.469 ± 0.097 | Y -0.264 ± 0.15 | H -0.17 ± 0.15 | K -0.002 ± 0.14 | S -0.092 ± 0.09 | V -0.093 ± 0.091 | R -0.049 ± 0.097 | T -0.164 ± 0.11 | Q -0.177 ± 0.12 | A -0.089 ± 0.1 | W -0.1 ± 0.12 | M -0.22 ± 0.14 | L -0.213 ± 0.086 | C -0.485 ± 0.14
P17: K 0.095 ± 0.12 | V -0.057 ± 0.087 | C -0.367 ± 0.12 | F -0.123 ± 0.11 | Q -0.159 ± 0.11 | S 0.026 ± 0.091 | E 0.074 ± 0.11 | N -0.313 ± 0.23 | D -0.615 ± 0.2 | Y -0.485 ± 0.16 | M -0.241 ± 0.13 | A -0.058 ± 0.096 | G -0.082 ± 0.084 | T 0.161 ± 0.12 | L -0.06 ± 0.091 | I -0.358 ± 0.2 | W -0.215 ± 0.094
C23: H -1.07 ± 0.26 | V -0.814 ± 0.094 | T -0.641 ± 0.14 | K -1 ± 0.16 | R -0.884 ± 0.097 | Y -0.987 ± 0.17 | D -0.516 ± 0.13 | P -0.736 ± 0.16 | A -0.675 ± 0.1 | Q -0.623 ± 0.16 | N -0.766 ± 0.21 | E -0.543 ± 0.11 | F -1 ± 0.19 | I -0.505 ± 0.2 | G -0.648 ± 0.088 | W -1.03 ± 0.16
G13: I -0.606 ± 0.13 | P 0.152 ± 0.11 | A -0.219 ± 0.096 | D -0.313 ± 0.093 | F -0.522 ± 0.11 | Q -0.068 ± 0.15 | T -0.455 ± 0.099 | M -0.381 ± 0.11 | E -0.353 ± 0.12 | C -0.315 ± 0.086 | N -0.266 ± 0.11 | H -0.884 ± 0.2 | Y -0.393 ± 0.11 | R -0.719 ± 0.1 | K -0.678 ± 0.16 | L -0.445 ± 0.09 | W -0.708 ± 0.12
L27: C -0.569 ± 0.16 | A -0.257 ± 0.1
C11: M -0.784 ± 0.13 | K -0.964 ± 0.22 | E -0.799 ± 0.16 | V -0.371 ± 0.1 | L -0.967 ± 0.11 | T -0.519 ± 0.16 | I -0.913 ± 0.18 | S -0.55 ± 0.09 | Y -0.827 ± 0.11 | W -0.674 ± 0.12 | F -0.719 ± 0.18 | P -0.693 ± 0.17 | R -0.81 ± 0.096 | Q -0.915 ± 0.17 | H -0.495 ± 0.15 | A -0.696 ± 0.11 | G -0.643 ± 0.099
C26: T -0.959 ± 0.18 | V -1.04 ± 0.14 | P -0.75 ± 0.16 | D -0.76 ± 0.18 | A -0.914 ± 0.15 | H -0.988 ± 0.29 | F -0.991 ± 0.27 | M -0.876 ± 0.16 | R -0.602 ± 0.1 | G -0.974 ± 0.11 | E -0.81 ± 0.18 | S -1.02 ± 0.13 | Y -0.851 ± 0.13 | W -0.778 ± 0.15 | L -0.902 ± 0.12 | K -0.785 ± 0.18
Q15: D -0.463 ± 0.16 | R -0.19 ± 0.093 | G -0.384 ± 0.088 | A -0.112 ± 0.089 | W -0.468 ± 0.11 | P -0.838 ± 0.14 | S -0.313 ± 0.085 | L -0.049 ± 0.081 | I -0.185 ± 0.16 | F -0.54 ± 0.13 | H -0.355 ± 0.18 | Y -0.727 ± 0.15 | V -0.25 ± 0.089 | E -0.103 ± 0.12 | M 0.058 ± 0.11 | T -0.244 ± 0.1 | C -0.37 ± 0.11 | N -0.392 ± 0.15

From the Human Domainome abundance scans (Beltran et al. 2025)
